In article PMC12562601:

Assays:
[1] = biological target: high-sensitive (HS) (α4)2(β2)3 nicotinic acetylcholine receptor (human) (UniProt P43681)
[2] = biological target: low-sensitive (LS) (α4)3(β2)2 nicotinic acetylcholine receptor (human) (UniProt P43681)
[3] = biological target: α3β2 nicotinic acetylcholine receptor (human) (UniProt P32297)

Measured: Maximal inhibition of ACh-evoked currents, % (single level fitted for all three datasets), two-electrode voltage clamp in X. laevis oocytes

Sequence of UniProt P32297 (P32297 32-505, chain 1 of 2): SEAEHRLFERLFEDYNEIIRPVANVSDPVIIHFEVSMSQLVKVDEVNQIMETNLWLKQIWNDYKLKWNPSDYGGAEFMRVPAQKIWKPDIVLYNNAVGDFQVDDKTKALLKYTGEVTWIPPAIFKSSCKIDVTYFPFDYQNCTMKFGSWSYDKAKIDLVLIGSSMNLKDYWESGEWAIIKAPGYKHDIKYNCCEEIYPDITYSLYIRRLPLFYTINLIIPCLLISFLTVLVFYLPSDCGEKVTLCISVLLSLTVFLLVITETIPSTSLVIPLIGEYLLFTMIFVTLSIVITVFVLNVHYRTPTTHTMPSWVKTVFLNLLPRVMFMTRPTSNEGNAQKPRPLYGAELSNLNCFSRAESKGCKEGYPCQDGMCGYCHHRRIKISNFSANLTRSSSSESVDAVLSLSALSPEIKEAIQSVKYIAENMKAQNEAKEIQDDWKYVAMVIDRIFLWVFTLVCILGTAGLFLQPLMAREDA
Sequence of UniProt P32297 (P17787 26-502, chain 2 of 2, further chain): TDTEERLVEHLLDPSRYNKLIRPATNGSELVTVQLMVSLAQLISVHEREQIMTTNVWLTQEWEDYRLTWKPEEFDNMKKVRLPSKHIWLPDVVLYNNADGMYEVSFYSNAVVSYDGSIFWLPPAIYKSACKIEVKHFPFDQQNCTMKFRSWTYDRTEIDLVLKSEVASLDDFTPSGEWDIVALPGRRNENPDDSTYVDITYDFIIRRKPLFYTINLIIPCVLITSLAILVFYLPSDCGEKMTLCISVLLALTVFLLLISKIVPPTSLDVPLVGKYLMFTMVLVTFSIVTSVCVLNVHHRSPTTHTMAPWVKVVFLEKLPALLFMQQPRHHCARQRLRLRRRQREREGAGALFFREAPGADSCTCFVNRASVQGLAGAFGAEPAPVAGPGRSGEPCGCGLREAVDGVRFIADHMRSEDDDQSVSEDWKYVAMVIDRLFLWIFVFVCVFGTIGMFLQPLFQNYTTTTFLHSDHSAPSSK

water-soluble recombinant analog of human prostate stem cell antigen (ws-PSCA) (domain or fragment)
31%: all assays above
